Experimental data as given in article PMC12044017, “CDK4/6-mediated phosphorylation of DUB3 promotes YAP1 stability and hepatocellular carcinoma progression” (Cell Death Discovery, 2025).

Target: T1, His-DUB3 (UniProt Q6R6M4 1-530)
T1 construct: deubiquitinase DUB3 (USP17L2), cloned into pET30a; the methods name only GST-DUB3 WT and His-YAP1
T1 sequence (looked up): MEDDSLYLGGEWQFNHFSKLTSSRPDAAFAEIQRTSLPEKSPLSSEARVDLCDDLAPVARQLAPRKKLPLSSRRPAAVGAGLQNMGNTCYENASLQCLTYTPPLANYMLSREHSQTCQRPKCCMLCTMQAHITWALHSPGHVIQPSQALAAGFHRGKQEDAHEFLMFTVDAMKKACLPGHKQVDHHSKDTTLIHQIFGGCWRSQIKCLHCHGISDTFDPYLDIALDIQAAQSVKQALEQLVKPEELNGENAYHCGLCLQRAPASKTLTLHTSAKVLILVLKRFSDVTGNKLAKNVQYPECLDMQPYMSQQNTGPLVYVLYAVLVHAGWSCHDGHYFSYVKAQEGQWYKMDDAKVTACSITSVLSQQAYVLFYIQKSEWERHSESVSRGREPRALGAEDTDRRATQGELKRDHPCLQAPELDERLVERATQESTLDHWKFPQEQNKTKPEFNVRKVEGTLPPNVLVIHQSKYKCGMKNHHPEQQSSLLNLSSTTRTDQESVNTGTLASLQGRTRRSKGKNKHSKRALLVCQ
Assay: pull-down; GST-fusion protein on Pierce Glutathione agarose mixed with purified His-tagged protein at 4 °C for 2 hours; beads washed four times; western blot
Details: both partners purified

B1: GST-CDK4 (enzyme, UniProt P11802 1-303, looked up)
chain: MATSRYEPVAEIGVGAYGTVYKARDPHSGHFVALKSVRVPNGGGGGGGLPISTVREVALLRRLEAFEHPNVVRLMDVCATSRTDREIKVTLVFEHVDQDLRTYLDKAPPPGLPAETIKDLMRQFLRGLDFLHANCIVHRDLKPENILVTSGGTVKLADFGLARIYSYQMALTPVVVTLWYRAPEVLLQSTYATPVDMWSVGCIFAEMFRRKPLFCGNSEADQLGKIFDLIGLPPEDDWPRDVSLPRGAFPPRGPRPVQSVVPEMEESGAQLLLEMLTFNPHKRISAFRALQHSYLHKDEGNPE
notes: cyclin-dependent kinase 4 (CDK4); no cyclin partner is mentioned; also called cyclin-dependent kinase 4; source: bacterial-purified recombinant; GST-fusion proteins purified on Pierce Glutathione agarose
B1: binds.
